Test results taken from PMC3692002 (Proteins, 2011).

Target: the molecule itself
Experiment: static light scattering

B1: UgR76, uncharacterized 73 residue domain from Ruminococcus gnavus (domain or fragment)
chain: MSEHREGTLFYDTETGRYDIRFDLESFYGGLHCGECFDVKVKDVWVPVRIEMGDDWYLVGLNVSRLDGLRVRMLEHHHHHH
stoichiometry N: 2
